Measurements: patent publication US20200010563A1 (PROTHENA BIOSCIENCES, published 2020)

How the values were obtained:
[1] = target: T1, human MCAM domain 3 (amino acids 244-321) hFc construct (human, UniProt P43121 244-321); test: ForteBio BLI, MCAMhFc domains on anti-human IgG Fc sensors, antibody 5 ug/ml
T1 construct: One of the 'various MCAMhFc domains' immobilised on anti-human IgG Fc biosensors; also called MCAMhFc domain 3; not shown: human IgG Fc (hFc)
T1 sequence: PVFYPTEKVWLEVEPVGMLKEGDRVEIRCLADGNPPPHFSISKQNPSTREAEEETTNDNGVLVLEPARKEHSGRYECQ
Text: The following protocol was used: ForteBio anti-human IgG Fc biosensors were used to immobilize various MCAMhFc domains including full length MCAMhFc protein on to biosensor surface. […] After loading these samples into a black 96 well plate, the Octet Red was programmed as follows: 60 seconds for baseline #1; 180 seconds for loading various domains; 60 seconds for baseline #2; 180 seconds for association of antibody to domain; and 240 seconds for dissociation of antibody from domain.
1. MCAMhFc final concentration @ 5 ug/ml [0342] […] 3. ForteBio anti-human IgG Fc Capture (AHC) biosensors for kinetics experiments, cat#18-5060 [0344] 4. Block 96 well plate from Greiner Bio-one, cat#655209 [0345] 5. ForteBio Octet Red machine [0346] 6. Fresh tissue culture medium, DMEM with 20% FCS, was used as buffer for dilution The results from these analyses are as follows.

[2] = target: T2, human MCAM V340A mutant (V5/HIS6) on BHK cells (human, UniProt P43121 24-646); test: shotgun mutagenesis, immunofluorescence on BHK cells
T2 sequence: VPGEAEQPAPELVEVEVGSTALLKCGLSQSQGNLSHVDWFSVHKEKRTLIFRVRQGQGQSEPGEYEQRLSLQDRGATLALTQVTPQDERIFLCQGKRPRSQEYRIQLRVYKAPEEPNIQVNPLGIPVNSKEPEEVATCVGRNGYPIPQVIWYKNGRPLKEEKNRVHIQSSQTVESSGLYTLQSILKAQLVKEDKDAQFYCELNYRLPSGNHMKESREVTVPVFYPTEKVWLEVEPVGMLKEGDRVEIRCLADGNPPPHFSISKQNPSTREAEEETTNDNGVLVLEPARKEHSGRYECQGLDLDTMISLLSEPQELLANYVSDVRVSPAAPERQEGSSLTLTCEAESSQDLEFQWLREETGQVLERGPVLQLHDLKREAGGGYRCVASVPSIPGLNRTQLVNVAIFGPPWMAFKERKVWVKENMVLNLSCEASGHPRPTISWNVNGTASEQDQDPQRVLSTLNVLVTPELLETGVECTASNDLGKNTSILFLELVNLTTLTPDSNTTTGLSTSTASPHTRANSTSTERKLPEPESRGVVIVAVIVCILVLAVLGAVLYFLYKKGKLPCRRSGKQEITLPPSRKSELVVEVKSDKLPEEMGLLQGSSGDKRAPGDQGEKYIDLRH
Method: (§1) The mutation library was assayed for surface expression (mouse sera binding) and monoclonal antibody binding, in triplicate. Each raw data point was background-subtracted and normalized to the wild type MCAM reactivity values. The mean monoclonal antibody binding value for each clone is plotted as a function of its mean surface expression value (FIG. 1, gray diamonds). Thresholds of <30% monoclonal antibody reactivity and >50% mouse sera binding were applied to identify clones (FIG. 1, black diamonds) that were negative for monoclonal antibody binding but positive for surface expression.
(§2) Residues involved in antibody binding were identified as those that were negative for monoclonal antibody binding (<30% WT) but positive for surface expression (>50% WT) (Table 4). The mean reactivity (and standard deviation) were determined for each critical residue.

[3] = target: T3, human MCAM C320A mutant (V5/HIS6) on BHK cells (human, UniProt P43121 24-646); test: shotgun mutagenesis library, immunofluorescence on BHK cells, triplicate; standard deviation in brackets
T3 sequence: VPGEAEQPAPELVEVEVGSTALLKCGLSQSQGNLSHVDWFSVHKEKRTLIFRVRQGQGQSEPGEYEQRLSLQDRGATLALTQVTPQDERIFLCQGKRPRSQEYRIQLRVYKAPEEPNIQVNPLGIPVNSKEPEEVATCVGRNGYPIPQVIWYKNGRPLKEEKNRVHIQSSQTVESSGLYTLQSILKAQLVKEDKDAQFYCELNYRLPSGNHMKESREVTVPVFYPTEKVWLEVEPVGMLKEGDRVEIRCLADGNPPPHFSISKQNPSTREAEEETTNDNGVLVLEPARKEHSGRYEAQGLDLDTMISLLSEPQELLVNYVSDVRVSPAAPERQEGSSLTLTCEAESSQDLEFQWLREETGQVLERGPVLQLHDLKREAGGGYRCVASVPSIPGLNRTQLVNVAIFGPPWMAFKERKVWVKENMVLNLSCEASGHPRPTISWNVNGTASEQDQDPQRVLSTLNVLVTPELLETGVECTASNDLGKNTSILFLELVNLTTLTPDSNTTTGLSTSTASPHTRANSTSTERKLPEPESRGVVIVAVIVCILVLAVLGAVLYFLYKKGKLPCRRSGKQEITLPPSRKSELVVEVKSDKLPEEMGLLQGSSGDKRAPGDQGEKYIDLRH
Method: as §1, §2

[4] = target: T4, human MCAM Y318A mutant (V5/HIS6) on BHK cells (human, UniProt P43121 24-646); test: as above
T4 sequence: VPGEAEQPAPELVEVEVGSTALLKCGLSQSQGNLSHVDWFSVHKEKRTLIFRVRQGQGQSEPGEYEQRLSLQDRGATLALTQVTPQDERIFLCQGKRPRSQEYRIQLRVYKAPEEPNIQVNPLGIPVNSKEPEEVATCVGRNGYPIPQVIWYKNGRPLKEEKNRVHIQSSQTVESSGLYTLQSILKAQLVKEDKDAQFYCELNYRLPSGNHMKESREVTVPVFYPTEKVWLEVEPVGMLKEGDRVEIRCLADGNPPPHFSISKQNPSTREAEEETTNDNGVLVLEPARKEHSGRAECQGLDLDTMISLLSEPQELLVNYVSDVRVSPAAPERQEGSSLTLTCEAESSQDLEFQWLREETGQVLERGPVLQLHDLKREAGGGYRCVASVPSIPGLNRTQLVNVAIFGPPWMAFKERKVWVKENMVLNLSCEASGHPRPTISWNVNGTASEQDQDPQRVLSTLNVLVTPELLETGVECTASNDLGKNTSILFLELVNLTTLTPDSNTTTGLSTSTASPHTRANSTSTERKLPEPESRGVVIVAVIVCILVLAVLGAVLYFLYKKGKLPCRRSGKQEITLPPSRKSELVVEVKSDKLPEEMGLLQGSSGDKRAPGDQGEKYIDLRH
Method: as §1, §2

[5] = target: T2, human MCAM V340A mutant (V5/HIS6) on …; test: as above
Method: as §1, §2

[6] = target: T5, human MCAM C272A mutant (V5/HIS6) on BHK cells (human, UniProt P43121 24-646); test: as above
T5 sequence: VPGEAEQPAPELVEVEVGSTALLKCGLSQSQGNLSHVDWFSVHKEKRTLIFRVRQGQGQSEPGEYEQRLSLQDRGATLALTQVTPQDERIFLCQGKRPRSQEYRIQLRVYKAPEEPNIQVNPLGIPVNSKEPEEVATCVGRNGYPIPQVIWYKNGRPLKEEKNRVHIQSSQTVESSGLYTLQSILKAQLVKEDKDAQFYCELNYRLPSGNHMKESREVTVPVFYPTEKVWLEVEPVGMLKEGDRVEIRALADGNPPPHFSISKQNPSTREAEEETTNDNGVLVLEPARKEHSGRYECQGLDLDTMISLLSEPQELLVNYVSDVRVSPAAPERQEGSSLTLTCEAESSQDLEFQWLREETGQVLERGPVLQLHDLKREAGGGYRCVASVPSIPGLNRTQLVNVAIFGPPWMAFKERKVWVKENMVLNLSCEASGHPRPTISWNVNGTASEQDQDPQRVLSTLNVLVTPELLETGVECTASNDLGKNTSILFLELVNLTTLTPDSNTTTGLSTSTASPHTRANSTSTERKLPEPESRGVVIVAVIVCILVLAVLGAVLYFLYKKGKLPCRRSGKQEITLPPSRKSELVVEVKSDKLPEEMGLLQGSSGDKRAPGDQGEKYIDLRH
Method: as §1, §2

[7] = target: T6, human MCAM W377A mutant (V5/HIS6) on BHK cells (human, UniProt P43121 24-646); test: as above
T6 sequence: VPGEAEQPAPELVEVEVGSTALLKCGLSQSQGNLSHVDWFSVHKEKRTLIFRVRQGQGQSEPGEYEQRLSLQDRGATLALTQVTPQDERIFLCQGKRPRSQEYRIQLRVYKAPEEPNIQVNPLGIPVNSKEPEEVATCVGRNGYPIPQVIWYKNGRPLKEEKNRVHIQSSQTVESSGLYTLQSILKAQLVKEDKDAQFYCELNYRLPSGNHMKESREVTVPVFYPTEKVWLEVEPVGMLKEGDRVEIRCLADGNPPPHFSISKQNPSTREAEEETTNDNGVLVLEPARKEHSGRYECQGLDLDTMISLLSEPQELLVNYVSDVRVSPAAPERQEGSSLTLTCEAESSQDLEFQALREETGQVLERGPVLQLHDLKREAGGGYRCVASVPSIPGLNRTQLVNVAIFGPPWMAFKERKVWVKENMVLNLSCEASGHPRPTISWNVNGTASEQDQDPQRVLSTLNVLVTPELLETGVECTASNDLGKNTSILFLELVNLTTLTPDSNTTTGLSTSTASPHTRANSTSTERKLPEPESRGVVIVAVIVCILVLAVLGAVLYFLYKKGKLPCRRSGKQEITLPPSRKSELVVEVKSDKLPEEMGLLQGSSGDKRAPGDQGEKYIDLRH
Method: as §1, §2

B1: mouse anti-human MCAM monoclonal antibody clone 1414.1.2 (antibody, V domains shown)
VH: EIQLQQTGPELVKPGASVKISCKASGYSFTDYIMLWVKQSHGKSLEWIGNINPYSGSSGYNLKFKGKATLTVDKSSSTAYMQLNSLTSEDSAVYYCARGKDFAMDYWGQGTSVTVSS
VL: DIVMSQSPSSLAVSAGEKVTMSCKSSQSLLNSSTRKNFLAWYQQKPGQSPKLLIYWASTRESGVPDRFTGSGSGTDFTLTISSVQAEDLAVYYCKQSYNRYTFGGGTKLEIK
notes: Mouse hybridoma monoclonal
Question: Does B1 bind [1]?
Answer: Result: binds

B2: mouse anti-human MCAM monoclonal antibody clone 1749.1.3 (antibody, V domains shown)
VH: DVKLVESGGDLVKPGGSLKLSCAASGFTFSSYIMSWVRQTPEKRLEWVATISSGGSSTYYPDSVKGRFTISRDNAKNTLYLQMSSLKSEDTAMYYCTRDDDYDVKVFAYWGQGTLVTVSA
VL: DIVMSQSPSSLAVSAGEKVTMNCKSSRSLLNSRIRKNYLAWYQQKPGQSPKLLIYWASTRESGVPDRFTGSGSGTDFTLTISSVQAEDLAVYYCKQSYNLLTFGAGTKLELK
notes: Mouse hybridoma monoclonal; also called m1749
Question: Does B2 bind [2]?
Answer: Result: no binding (tested: <30% WT; 0.5 µg/mL antibody)

Question: What about the “mean reactivity (% of wild type MCAM)” value [3] of the same binder?
Answer: The value was 9.3 % of WT.

Question: And the “mean reactivity (% of wild type MCAM)” value [4]?
Answer: Its value is 7.1 % of WT.

Question: And the “mean reactivity (% of wild type MCAM)” value [5]?
Answer: Its value is 8.7 % of WT.

Question: What about the “mean reactivity (% of wild type MCAM)” value [6] of the same binder?
Answer: The value was 7.6 % of WT.

Question: What about the “mean reactivity (% of wild type MCAM)” value [7] of the same binder?
Answer: Its value is 13.7 % of WT.

B3: mouse anti-human MCAM monoclonal antibody clone 1415.1.1 (antibody, V domains shown)
VH: QVQLQQPGAELVQPGAPVKLSCKASGYIFTSYWMNWVKQRPGRGLEWIGRIDPSDSKIHYNQKFKDKATLTVDRSSSTAYIQLGSLTSEDSAVYYCAKEGGLRRGDYAMDYWGQGTSVTVSS
VL: DIVMTQSPATLSVTPGDRVSLSCRASQSISDYLHWYQQKSHESPRLLIKYASQSISGIPSRFSGSGSGSDFTLSINSVEPEDVGVYYCQNGHNFPRTFGGGTKLEIK
notes: Mouse hybridoma monoclonal
Question: Does B3 bind [1]?
Answer: Result: binds

B4: mouse anti-human MCAM monoclonal antibody clone 1174.1.3 (antibody, V domains shown)
VH: QIQLVQSGPELKKPGETVKISCKASGYTFTNYGMNWVKQAPGKGLKWMGWINTYTGEPTYADDFKGRFALSLETSASTAYLQINNLKNEDMATYFCARYRYNKYERAMDYWGQGTSVTVSS
VL: DIVLTQSPASLAVSLGQRATISCRASKSVSTSGYSYMYWYQQKPGQPPKLLIYLASNLESGVPARFSGSGSGTDFTLNIHPVEEEDAATYYCQHSRELPFTFGSGTKLEIK
notes: Mouse hybridoma monoclonal
Question: Does B4 bind [1]?
Answer: Result: binds
